What was measured:
[1] = ELISA assay on laminarin-coated plates; format: binding
Experimental: The activity of the purified antibody was then tested by ELISA assay. 96-well plates were coated with 50 μg/ml Laminarin (Sigma-Aldrich, L9634) in 0.05 M carbonate buffer pH 9.6 overnight at 4° C. Nonspecific interactions were blocked with 100 μL/well blocking solution, 3% (w/v) BSA in PBS-Tween 20 (8 g/L NaCl, 0.2 g/L KH2PO4, 2.9 g/L Na2HPO4·12 H2O, 0.2 g/L KCI, 0.05% (v/v) Tween 20, pH 7.4) at 37° C. for 1 h. The plates were then incubated with decreasing concentrations of hmAb 2G8_first approach (comparative purpose) (from 3.12 μg/ml to 0.003 μg/ml, each concentration was tested in triplicate) in blocking solution for 2 h at 37° C. At the same temperature and for the same time, 100 μL Goat anti-human-HRP diluted 1:1000 in blocking solution was poured in each well. After every single passage the plates were washed 5 times with PBS-Tween 20. To reveal the binding, 100 μl of 5 mg-ABTS tablet (Roche Diagnostics) dissolved in 12 ml of sodium citrate (0.05 M, pH 3) and supplemented with 1:1000 dilution hydrogen peroxide (Carlo Erba) was added and after 15, 30, 45 and 60 min the absorbance at 405 nm was measured. For the whole measuring time the plates were left in the dark. IC50 analysis of ELISA test was performed with Prism. The TEST was performed in triplicate.
The surnatants collected from the obtained humanised mAb were tested in ELISA test.
Four supernatants from hmAb according to the invention (H5/K3; H5/K1; H5/K7; H5/K5) were purified to confirm the data. 8 scalar dilutions, starting from 5 μg/ml, were tested.
The purified humanised mAb 2G8 H5/K1 was then tested in an ELISA assay using laminarin as a target.

[2] = test system: C. auris; assay: Growth inhibition assay (CFU count); format: cell-based; settings: 18 h at 37° C.
Experimental: The growth inhibitory activity of humanised mAb 2G8 H5/K1 was tested as reported in W. Magliani et al, Nature Biotech. 1997; 15:155-158 with some modifications. In brief, 150-250 cells of C. auris in 10 μl of PBS were incubated with 100 μl of humanised mAb 2G8 at 250, 100 and 50 μg/ml (each concentration was tested in triplicate) and incubated for 18 h at 37° C. The inhibition was evaluated by seeding the yeast on PDA. The plates were incubated at 37° C. for 48 h and the inhibition was calculated by count of the CFU. The assay was performed in triplicate.

[3] = test system: β-1,3-glucans on the surface of C. auris; assay: Recognition of C. auris by flow cytometry and confocal microscopy; format: cell-based; settings: 12 μg/ml mAb
Experimental: From an overnight inoculum, C. auris cells were washed with RPMI+MOPS (0.165 M, pH 7) and 3.0×10^6 cells were pelleted, suspended in Phosphate buffered saline (PBS) containing 3% (w/v) BSA (Bovine Serum Albumin—Sigma Aldrich) and put in contact with 12 μg/ml of the humanised mAb 2G8 for 1 hour at room temperature. The cells were then washed with PBS and marked with anti-human IgG FITC antibody 1:150 in PBS+3% BSA for 1 hour. The cells were then washed and fixed with paraformaldehyde 4% in PBS 1 hour at 4° C. After fixing and washing with PBS, the pellet was suspended in 400 μl of PBS and splitted in two tubes. The samples were analysed using flow cytometry and confocal microscopy, respectively.
A Flow cytometer (FACScanto II, BDBioscences, Erembodegem, Belgium), equipped with three lasers (488 nm, 633 nm, 405 nm) was employed to collect and quantitate FITC fluorescence from different samples. Both autofluorescence and fluorescence derived from a specific binding of FITC-conjugated secondary Ab were quantitated by Flow Cytometry. […] The histogram CTRL evaluates the background from aspecific binding of FITC-conjugated secondary Ab, enabling to fix the threshold defining the positivity for the humanised mAb H5/K1 (treated). 97% of events express the antigen (treated panel). The expression was precisely quantitated by MFI values: the fold of increase is 164, when compared to control (FIG. 12B). Light grey events in FIG. 12A histograms represent cells outside the scatter area mainly occupied by the cells: i.e. aggregates or increase in cell size (as during senescence).

[4] = test system: C. auris adhesion to HeLa cells; assay: Adhesion assay, fungal adhesion to HeLa cell monolayer; format: cell-based; settings: 12 μg/ml, HeLa:yeast 1:1, 1 hour
Experimental: In order to investigate the protective effect of hmAb 2G8 H5/K1 in preventing fungal adhesion to human cells commonly known to be preferred targets, C. auris cells were left adhering to a monolayer of HeLa cells together with the humanised mAb H5/K1, to reproduce an infection-medication scenario. 1.0×10^4 cervical cancer cells HeLa were suspended in RPMI+*10% FBS (pH 7) and plated in a 96-well plate for 2 hours at 37° C.+5% CO2. After incubation, the cells not attached at the bottom of the wells were washed away and 1.0×10^4 cells of C. auris suspended in RPMI+MOPS (0.165 M, pH 7) were added to reach a 1:1 ratio HeLa:yeast cells. Together with the yeast, 12 μg/ml of the humanised mAb 2G8 were added. PBS was used in the control sample. The plate was left at 37° C. for 1 hour and after washing 5 times, HeLa cells were lysed with PBS 0.1% Triton X100 (15 min. RT). The suspension was plated in PDA plate and incubated at 37° C. for 48 hours. This experiment has been repeated two times in triplicate.

B1: hmAb 2G8 H5/K1: humanised anti β-1,3 glucan mAb; heavy chain variable region H5 (SEQ ID NO: 22), light chain variable region K1 (SEQ ID NO: 15) (antibody, V domains shown)
VH: QVQLQQSGAELKKPGASVKISCKASGYTLSSYWLEWVRQRPGQGLEWIGEILPGSGSTNYNEKFKGRATFTADTSTNTAYMELSSLTSEDSAVYYCAREGWYFDVWGQGTTVTVSS
VL: DVVMTQSPLSLPVTLGQPASISCRSSQSLLYSNGNTHLNWFQQRPGQSPRRLIYLVSNRDSGVPDRFSGSGSGTDFTLKISRVEAEDVGVYYCVQGTHFPYTFGGGTKLEIK
modifications: VH-H5; VL-K1
activity / affinity compared with murine 2G8 ([1]; ELISA): performs better than the original murine one
Abs 405 nm ([1]; ELISA of supernatants of humanised mAbs): 3.48
performance in ELISA assay of purified hmAbs ([1]; purified supernatants, 8 scalar dilutions from 5 μg/ml): best performer
inhibition of yeast cell growth ([2]; 50 μg/ml): over 60%
inhibition of yeast cell growth ([2]; 100 μg/ml): over 70%
inhibition of yeast cell growth ([2]; 250 μg/ml): over 70%
binding on confocal images ([3]; confocal microscopy, FITC signal): recognize and bind β-1,3-glucans on the surface of C. auris
MFI fold of increase compared to control ([3]; flow cytometry): 164 fold
events expressing the antigen (FITC positive) ([3]; flow cytometry, 1 hour): 97%
reduction in fungal adhesion to mammalian cells [4]: 51.5%

Reference: US20230406912A1, “HUMANISED ANTIBODIES AGAINST PATHOGENIC FUNGI” (priority 2020, published 2023)
